Article PMC5004148

Assays:
[1] = biological target: transmembrane truncated VP24 (residues 28-208) (White spot syndrome virus (WSSV)); test: crystal structure; X-ray, SAD phasing, 2.4 Å, space group I 2(1) 3; trimer by the crystallographic three-fold axis; 0.1 M Tris-HCl pH 8.5, 2.75 M ammonium acetate, 10 mM ATP as additive, 16 °C
[2] = biological target: transmembrane truncated VP24 (residues 28-208) (White spot syndrome virus (WSSV)); test: cross-linking; purified VP24 in PBS (around 0.6 mg/ml in 40 ul) with rising glutaraldehyde, room temperature, 4 h; 15% SDS-PAGE, Coomassie blue

Substance “transmembrane truncated VP24 (residues 28-208) (domain or fragment)” has a stoichiometry N [1] of 3 and a stoichiometry N [2] of 3.
